“And” between values parts separate entries of the source, which are not always exact repeats. Equal values may be shown once.

Eight molecules from US20230303681A1 (published 2023) can be followed below.

Assay [1] addresses T1, human TMEM106B (human, UniProt Q9NUM4 2-274).
T1 construct: Full-length, on transiently transfected HEK293 cells, or natively expressed on HeLa, U251 and A549 cells; also called huTMEM106B; huTMEM
The assay is described as follows: FACS HeLa.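 Also: flow cytometry of cells incubated with hybridoma supernatant or purified antibody at 10 µg/ml for 1 h on ice, propidium iodide–positive dead cells gated out.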

In assay [2] the target is T1, human TMEM106B. The assay is described as follows: FACS U251.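 Also: flow cytometry of cells exposed to antibody (purified at 10 µg/mL, or hybridoma supernatant) for 1 h on ice, with propidium iodide-positive dead cells gated out.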
Experimental: (§1) All cells were cultured in either T75 or T150 flasks. […] The enzyme was quenched by addition of fresh media, and the cells were then distributed into 96-well plates for FACS analysis.
(§2) FACS analysis was performed as follows. Each cell type was aliquoted in 96-well round bottom plates (2x10^5 cells per well), washed once with FACS buffer (PBS + 2% FBS + 1 mM EDTA), and incubated with 50 µL of hybridoma supernatant or purified antibody (10 µg/ml in FACS buffer) on ice for 1 hour. […] Following this secondary incubation, the cells were again washed 2x with ice-cold FACS buffer and resuspended in a final volume of 50 µL of FACS buffer + 0.25 µl/well propidium iodide (Fisher Scientific # BDB556463). Analysis was performed on a FACSCanto system (BD Biosciences) or iQue (Intellicyt), with sort gates drawn to exclude dead (i.e., propidium iodide positive) cells.
(§3) Data is presented as mean fluorescence intensity (MFI).
For assay [3], the target named is T2, mouse TMEM106B (mouse, UniProt Q80X71 2-275).
T2 construct: on transiently transfected HEK293 cells, or natively expressed on mouse Neuro2a cells; also called moTMEM106B; murine TMEM106B
In words: FACS Neuro2a.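 Also: flow cytometry of cells stained with antibody or hybridoma supernatant (purified antibody at 10 µg/ml) for 1 h on ice, propidium iodide–positive dead cells gated out.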

The target in assay [4] is T3, GST (Pierce) (UniProt P08515 1-218 = GST, limits assumed).
T3 construct: control for the GST part of the fusion protein; also called GST protein; Glutathione-S-transferase
In words: ELISA, coated GST.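 Also: ELISA on plates coated with GST alone at 1-10 µg/ml, antibodies applied at 100-1000x dilution, bound antibody detected by peroxidase substrate colour after acid stop.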 In general terms: ELISA stands for enzyme-linked immunosorbent assay.

The target in assay [5] is T1, human TMEM106B. In words: FACS A549, 1 ug/ml.
The target of assay [6] is T1, human TMEM106B. The assay is described as follows: FACS A549, 10 ug/ml.
Experimental: (§4) Purified anti-TMEM106B antibodies were evaluated for their binding affinity to various TMEM106B-expressing cell lines including HEK293 transiently transfected with human/cyno/mouse TMEM106B, as well as HeLa cells and A549 cells. Antibodies tested for this experiment were mouse IgGs purified from hybridoma supernatant. Affinity binding to cells was determined as follows. Briefly, 1x10^5 cells were aliquoted per well in 96-well round bottom plates and incubated with 50 µL of purified anti-TMEM106B antibody at various concentrations (10x dilutions starting at 10 µg/ml) in FACS buffer (PBS + 2% FBS + 1 mM EDTA). […] Sorting was performed on a iQue (Intellicyt), with sort gates drawn to exclude dead (propidium iodide +) cells. Binding data was analyzed using median fluorescent intensity (MFI) and graphed in Prism. Values presented are MFI.
Assay [7] addresses T1, human TMEM106B. In words: FACS, HEK293 transfectants. (A flow cytometer gives signals particle by particle.)
For assay [8], the target named is T1, human TMEM106B. In words: FACS HEK+huTMEM, 10 ug/ml.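 Also: purified mouse IgG antibodies at 10 µg/ml bound to HEK293 cells transiently expressing human TMEM106B, measured by flow cytometry as median fluorescence intensity of propidium iodide negative live cells.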
Assay [9] has as its target T1, human TMEM106B. The assay is described as follows: FACS, HEK293 transfectants. This is another data set of the same source.
Assay [10] concerns the target T4, cynomolgus (cyno) TMEM106B (cynomolgus, UniProt Q9NUM4 2-274 (human entry)).
T4 construct: on transiently transfected HEK293 cells
In words: FACS, HEK293 transfectants.

Assay [11] deals with T2, mouse TMEM106B. The assay is described as follows: FACS, HEK293 transfectants.
The target in assay [12] is T1, human TMEM106B. The assay is described as follows: FACS HEK+huTMEM, 0.1 ug/ml.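 Also: flow cytometry binding of purified mouse IgG antibodies to HEK293 cells transiently expressing TMEM106B, read as median fluorescence intensity with propidium iodide positive dead cells gated out.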
In assay [13] the target is T1, human TMEM106B. The assay is described as follows: FACS HEK+huTMEM, 1.0 ug/ml.
In assay [14] the target is T1, human TMEM106B. In words: FACS HEK+huTMEM, 0.01 ug/ml.
Experimental: as §4
Assay [15] has as its target T5, GST-fusion human TMEM106B truncated (human).
T5 construct: also called GST-TMEM106B-truncated protein; GST-TMEM106B (truncated)
In words: epitope binning, array SPR (Community 3, Bin 5).
Experimental: Epitope binning of the anti-TMEM106B antibodies was performed by Carterra (Salt Lake City, Nevada, USA) using a pre-mix epitope binning approach.

Assay [16] has as its target T1, human TMEM106B. The assay is described as follows: FACS A549.
Experimental: as §1, §2, §3
In assay [17] the target is T3, GST (Pierce). The assay is described as follows: array SPR, Ab immobilised.
Assay [18] has as its target T5, GST-fusion human TMEM106B truncated. In words: array SPR, Ab immobilised.
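For Kd in this document: antibodies amine-coupled on an MX-96 chip, antigen flowed at 500 nM top concentration in 5-fold serial dilutions, GST alone run as nonspecific-binding control, duplicate measurements.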
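For fold over negative controls in this document: hybridoma supernatants incubated 30 min on ice with human TMEM106B-expressing HEK293 cells, binding read as anti-mouse-APC median fluorescence on live cells, relative to secondary-antibody-only wells.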
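For fold-change over parental HEK293 in this document: flow cytometry binding of hybridoma supernatants to HEK293 cells transiently expressing human, cyno or mouse TMEM106B, read as anti-mouse-APC median fluorescence, live cells only, 30 min on ice.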
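For koff in this document: antibodies amine-coupled on an MX-96 chip, antigen flowed at 500 nM top concentration in 5-fold serial dilutions, GST alone run as nonspecific-binding control, duplicate measurements.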
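For kon in this document: antibodies amine-coupled on an MX-96 chip, antigen flowed at 500 nM top concentration in 5-fold serial dilutions, GST alone run as nonspecific-binding control, duplicate measurements.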

B1: anti-TMEM106B antibody TM-31 (antibody, V domains shown)
VH: QVQLQQSGAELAKPGASVKVSCKASGYTFISYWMNWVKQRPGQGLEWIGYINPTSGYTRYNQKFKDKATLTADKSSSTAYMQLSSLTYEDSAVYYCARSPPTVVLIGYFDYWGQGTTLTVSS
VL: DIKMTQSPSSMYASLGERVTFTCKASQDINSYLSWFQQKPGKSPKTLIYRGNGLVDGVPSRFSGSGSGQDYSLTISSLEYEDMGIYYCLQYDEFPFTFASGTKLEIK
notes: mouse IgG from hybridoma
For B1, the MFI was determined as 799 in the assay with human TMEM106B [1]; 352 with human TMEM106B [2]; 325 with mouse TMEM106B [3]; 403 with human TMEM106B [5]; 527 with human TMEM106B [6]; 6060 in the assay with human TMEM106B [8]. For the same molecule, the MFI is 1390 in the assay with human TMEM106B [12], 3680 with human TMEM106B [13] and 596 in the assay with human TMEM106B [14]. Moreover, the binding result with GST (Pierce) [4] is “no binding”; in [15], “no binding (tested: 55 nM antigen)”. Besides, in the assay with human TMEM106B [7], the “fold over negative controls” value is over 2 fold. In addition, the “fold-change over parental HEK293” value with human TMEM106B [9] was 22.1 fold; in [10], 64.7 fold; with mouse TMEM106B [11], 68.7 fold.

B2: anti-TMEM106B antibody TM-35 (antibody, V domains shown)
VH: QVQLQQSGPELVRPGTSVKISCKAPGYTFTRHWMQWVRQRPGQGLEWIGEILPGSNNIYYNEKVKGKATLTVDTSSSTSYMQLSSLTSEDSAVYFCARSLYDYDGVFAYWGQGTLVTVSA
VL: DVLMTQIPLSLPVSLGDQASISCRSSQSIVHRNGNTYLEWYLQKPGQSPKLLIYKVSNRFSGVPDRFSGSGSGTDFTLKISRVEAEDLGVYYCFQGSHVPYTFGGGTKLEIK
On to B2, for which the MFI with human TMEM106B [16] came out at 982; with human TMEM106B [1], 241; with human TMEM106B [2] it was 370; with mouse TMEM106B [3], 181; with human TMEM106B [5], 3270; with human TMEM106B [6], 4200. Further, the MFI is 48700 with human TMEM106B [8], 22600 in the assay with human TMEM106B [12], 55400 with human TMEM106B [13] and 4080 with human TMEM106B [14]. In the assay with GST (Pierce) [17], the binding result is listed as “no binding”. Further, the “fold over negative controls” value with human TMEM106B [7] is over 2 fold. In addition, the Kd in [18] is 6 nM and 6.8 nM. Moreover, in assay [18], the koff is 9e-05 s⁻¹ and 0.00011 s⁻¹. Further, in assay [18], the on-rate (kon) is 15000 M⁻¹ s⁻¹ and 16000 M⁻¹ s⁻¹. Also, the “fold-change over parental HEK293” value with human TMEM106B [9] is 11.5 fold; in assay [10], 14.7 fold; with mouse TMEM106B [11], 1.04 fold.

B3: anti-TMEM106B antibody TM-48 (antibody, V domains shown)
VH: QVQLQQSGPELVKPGASVKLSCKASGYTFTSYDINWVKQRPGQGLEWIGWIYPRDGNTQYIEKLKGKATLTVDTSSSTAYMELHSLTSEDSAVYFCARWIFYAMDYWGQGTSVTVSS
VL: DVLMTQTPLSLPVSLGNQASISCRSSQSIVHGNGNTYLEWYLQKPGQSPKLLIYKVSNRFSGVPDRFSGSGSGTDFTLKISRVEAEDLGVYYCFQGSHLPYTFGGGTKLEIK
In the case of B3, the MFI came out at 677 with human TMEM106B [16]; 219 in the assay with human TMEM106B [1]; 346 in the assay with human TMEM106B [2]; 292 with mouse TMEM106B [3]; 1580 with human TMEM106B [5]; 2450 with human TMEM106B [6]. In addition, the MFI with human TMEM106B [8] is 38200; in the assay with human TMEM106B [12], 21600; with human TMEM106B [13], 39900; with human TMEM106B [14], 4050. The binding result in the assay with GST (Pierce) [17] is on record as “no binding”. Besides, the “fold over negative controls” value with human TMEM106B [7] is over 2 fold. Moreover, the Kd in assay [18] was 3.1 nM and 3.9 nM. Moreover, the off-rate constant (koff) in [18] was 5.3e-05 s⁻¹ and 5.6e-05 s⁻¹. Moreover, in assay [18], the kon is 17000 M⁻¹ s⁻¹ and 14000 M⁻¹ s⁻¹. Besides, the “fold-change over parental HEK293” value is 16.7 fold in the assay with human TMEM106B [9], 16.4 fold in assay [10] and 28.5 fold with mouse TMEM106B [11].

B4: anti-TMEM106B antibody TM-42 (antibody, V domains shown)
VH: QVQLQQSGAELAKPGASVKLSCKASGYTFTNYWMHWVKKRPGQGLEWIGYINPSSGYTKYNQKFKDKATLTADKSSNTAYMQLSSLTYEDSAVYYCTREGGSISDWYFDVWGTGTTVTVSS
VL: DIVMTQAAPSLPVTPGESVSISCRSSKSLLHSNGNTYLYWFLQRPGQSPQLLIYRMSNLASGVPDRFSGSGSGTAFTLRISRVEAEDVGVYYCMQHLEYPYTFGGGTKLEIK
In the case of B4, the MFI in the assay with human TMEM106B [16] was 947; in the assay with human TMEM106B [1] it was 215; with human TMEM106B [2], 326; with mouse TMEM106B [3], 237; in the assay with human TMEM106B [5], 1780; in the assay with human TMEM106B [6], 3300. The MFI with human TMEM106B [8] is 60100; in the assay with human TMEM106B [12], 16700; in the assay with human TMEM106B [13], 58100; with human TMEM106B [14], 2070. Also, the binding result in the assay with GST (Pierce) [17] is recorded as “no binding”. In addition, the Kd in assay [18] was 33 nM and 24 nM.

B5: anti-TMEM106B antibody TM-45 (antibody, V domains shown)
VH: QVQLQQSGAELAKPGASVKLSCKASGYTFTNYWMHWVKKRPGQGLEWIGYINPSSGYTKYNQKFKDKATLTADKSSNTAYMQLSSLTYEDSAVYYCTREGGSISDWYFDVWGTGTTVTVSS
VL: DIVMTQAAPSLPVTPGESVSISCRSSKSLLHSNGNTYLYWFLQRPGQSPQLLIYRMSNLASGVPDRFSGSGSGTAFTLRISRVEAEDVGVYYCMQHLEYPYTFGGGTKLEIK
For B5, the MFI in the assay with human TMEM106B [16] stood at 819; with human TMEM106B [1], 191; with human TMEM106B [2], 517; with mouse TMEM106B [3], 187; with human TMEM106B [5], 1860; in the assay with human TMEM106B [6], 3240. Also, the MFI with human TMEM106B [8] is 58100; with human TMEM106B [12], 21300; with human TMEM106B [13], 57600; with human TMEM106B [14], 2500. Further, in the assay with GST (Pierce) [17], the binding result was “no binding”. Also, the Kd in [18] is 19 nM and 18 nM.

B6: anti-TMEM106B antibody TM-39 (antibody, V domains shown)
VH: HVQRQQSGTELAKPGASVKLSCKTSGYTFTDYWMHWIKQRPGQGLEWIGFINPSSGYTKYNQNFKDKATLTADKSSSTAYMQLSSLTYEDSAVFYCAREAGSISDWYFDVWGTGTTVTVSS
VL: DIVMTQAAPSIPVTPGESVSISCRSSKTLLNSNGNTYLYWFLQRPGQPPQLLIYRMSNLASGVPDRFSGSGSGTAFTLRISRVEAEDVGVYYCMQHLDYPYTFGGGTQLEIK
For B6, the MFI was 3610 with human TMEM106B [5]; 5330 with human TMEM106B [6]; 51900 with human TMEM106B [8]; 19200 in the assay with human TMEM106B [12]; 55600 with human TMEM106B [13]; 3850 with human TMEM106B [14]. Also, the binding result in the assay with GST (Pierce) [17] is given as “no binding”. Besides, the “fold over negative controls” value in the assay with human TMEM106B [7] was over 2 fold. Further, the Kd in [18] was 4.1 nM and 2.2 nM. The koff in assay [18] was 5.8e-05 s⁻¹ and 3e-05 s⁻¹. Further, the on-rate constant (kon) in assay [18] was 14000 M⁻¹ s⁻¹.

B7: anti-TMEM106B antibody TM-37 (antibody, V domains shown)
VH: QVQLQQSGAELAKPGASVKLSCKASGYTFTSYWMHWVKQRPGQGLEWIGYVNPSSGYTKNNQKFKDKVTLTADKSSSTAYMQLSSLTYEDSAVYYCAREGGSISDWYFDVWGTGTTVTVSS
VL: DIVMTQAAPSVPVTPGESVSISCRSSKSLLHSNGNTYSYWFLQRPGQSPQLLIYRMSNLASGVPDRFSGSGSGTAFTLRISRVEAEDVGVYYCMQHLEYPYTFGGGTKLEIK
With B7, the MFI with human TMEM106B [16] was 1040; with human TMEM106B [1], 254; in the assay with human TMEM106B [2], 408; with mouse TMEM106B [3], 208; in the assay with human TMEM106B [5] it was 2980; with human TMEM106B [6], 4210. Moreover, the MFI in the assay with human TMEM106B [8] turned out to be 50500; with human TMEM106B [12], 29400; with human TMEM106B [13], 58700; with human TMEM106B [14], 3920. The binding result with GST (Pierce) [17] is “no binding”. In addition, the Kd in [18] was 2.6 nM and 6.3 nM.

B8: anti-TMEM106B antibody TM-51 (antibody, V domains shown)
VH: QVQLQQPGAELVKPGASVKLSCKASGYTFTTYWIDWVKQRPGQGLEWIGNMFPGSSRTNYNEKFKSRATLTVDTSSSTAYMQLSSLTSDDSAVYYCARKEGLWTYGYDGGAWFAYWGQGTLVTVSA
VL: DIVMSQSPSSLAVSVGEKVTMSCKSSQSLRNSRTRKNYLAWYQQKPGQSPKLLIYWASTRESGVPDRFTGSGSGTDFTLTISSVQAEDLAIYYCKQSYNLLTFGAGTKLELK
notes: mouse IgG from hybridoma
Turning to B8, in the assay with GST (Pierce) [17], the binding result was “no binding”.

A word on the Kd: it is a measure of binding affinity in units of concentration. Read a low Kd as higher affinity. One may read the koff as a measure of how fast the partners let go of each other. Low values mean slow dissociation, high ones fast dissociation. For orientation: kon means the rate constant with which the complex forms. Read a high kon as faster complex formation.
